# Experimental data taken from the RNAGym collection of RNA variant scans (doi:10.7554/elife.90254).
# B1: LINE1-mini (parent)
# chain: GGCAGAGCUCAACACAGCGUGGCAAAGUGGCUGUGGCUAGACUGCC
# Variants of: B1
# Assay: self-cleavage, relative activity (ratio to wild type); higher = more cleavage; in vitro, sequencing; the parent is a self-cleaving ribozyme
row,Variant,self-cleavage
1,GGCAGAGCUCAACUCAGCGUGGCAAAGUGGCUGUGGCUACACUGCC [A14U G40C],0.08
2,GGCAGAGCUCAACUCAGCGUGGCAAAGUGGCUGUGGCUAUACUGCC [A14U G40U],0.11
3,GGCAGAGCUCAACUCAGCGUGGCAAAGUGGCUGUGGCUAAACUGCC [A14U G40A],0.05
4,GGCAGAGCUCAACUCAGCGUGGCAAAGUGGCUGGGGCUAGACUGCC [A14U U34G],0.75
5,GGCAGAGCUCAACUCAGCGUGGCAAAGUGGCUGCGGCUAGACUGCC [A14U U34C],0.17
6,GGCAGAGCUCAACUCAGCGUGGCAAAGUGGCUGAGGCUAGACUGCC [A14U U34A],0.82
7,GGCAGAGCUCAACUCAGCGUGGCAAAGUGACUGUGGCUAGACUGCC [A14U G30A],0.18
8,GGCAGAGCUCAACUCAGCGUGGCAAAGUGUCUGUGGCUAGACUGCC [A14U G30U],0.19
9,GGCAGAGCUCAACUCAGCGUGGCAAAGUGCCUGUGGCUAGACUGCC [A14U G30C],0.14
10,GGCAGAGCUCAACAAAGCGUGGCCAAGUGGCUGUGGCUAGACUGCC [C15A A24C],0.04
11,GGCAGAGCUCAACAAAGCGUGGCGAAGUGGCUGUGGCUAGACUGCC [C15A A24G],0.07
12,GGCAGAGCUCAACAAAGCGUGGCUAAGUGGCUGUGGCUAGACUGCC [C15A A24U],0.12
13,GGCAGAGCUCAACAAAGCGUGGCAGAGUGGCUGUGGCUAGACUGCC [C15A A25G],0.12
14,GGCAGAGCUCAACAAAGCGUGGCACAGUGGCUGUGGCUAGACUGCC [C15A A25C],0.04
15,GGCAGAGCUCAACAAAGCGUGGCAUAGUGGCUGUGGCUAGACUGCC [C15A A25U],0.07
16,GGCAGAGCUCAACAAAGGGUGGCAAAGUGGCUGUGGCUAGACUGCC [C15A C18G],0.09
17,GGCAGAGCUCAACAAAGAGUGGCAAAGUGGCUGUGGCUAGACUGCC [C15A C18A],0.04
18,GGCAGAGCUCAACUCAGCGUGGCAUAGUGGCUGUGGCUAGACUGCC [A14U A25U],0.32
19,GGCAGAGCUCAACUCAGCGUGGCACAGUGGCUGUGGCUAGACUGCC [A14U A25C],0.3

row,Variant,self-cleavage
1,GGCAGAGCUCAACUCAGCGUGGCAGAGUGGCUGUGGCUAGACUGCC [A14U A25G],0.1
2,GGCAGAGCUCAACUCAGCGUGGCAAAGUGGCAGUGGCUAGACUGCC [A14U U32A],0.05
3,GGCAGAGCUCAACUCAGCGUGGCAAAGUGGCGGUGGCUAGACUGCC [A14U U32G],0.1
4,GGCAGAGCUCAACUCAGCGUGGCAAAGUGGCCGUGGCUAGACUGCC [A14U U32C],0.15
5,GGCAGAGCUCAACUCAGCGUGGCAAAGUGGCUGUGGCUAGACUUCC [A14U G44U],0.06
6,GGCAGAGCUCAACUCAGCGUGGCAAAGUGGCUGUGGCUAGACUCCC [A14U G44C],0.2
7,GGCAGAGCUCAACUCAGCGUGGCAAAGUGGCUGUGGCUAGACUACC [A14U G44A],0.13
8,GGCAGAGCUCAACUCACCGUGGCAAAGUGGCUGUGGCUAGACUGCC [A14U G17C],0.22
9,GGCAGAGCUCAACUCAUCGUGGCAAAGUGGCUGUGGCUAGACUGCC [A14U G17U],0.1
10,GGCAGAGCUCAACUCAACGUGGCAAAGUGGCUGUGGCUAGACUGCC [A14U G17A],0.13
11,GGCAGAGCUCAACUCAGCGUGGCAAACUGGCUGUGGCUAGACUGCC [A14U G27C],0.16
12,GGCAGAGCUCAACUCAGCGUGGCAAAUUGGCUGUGGCUAGACUGCC [A14U G27U],0.29
13,GGCAGAGCUCAACUCAGCGUGGCAAAAUGGCUGUGGCUAGACUGCC [A14U G27A],0.37
14,GGCAGAGCUCAACUCAGCGCGGCAAAGUGGCUGUGGCUAGACUGCC [A14U U20C],0.19
15,GGCAGAGCUCAACUCAGCGAGGCAAAGUGGCUGUGGCUAGACUGCC [A14U U20A],0.42
16,GGCAGAGCUCAACUCAGCGGGGCAAAGUGGCUGUGGCUAGACUGCC [A14U U20G],0.28
17,GGCAGAGCUCAACUCAGCGUAGCAAAGUGGCUGUGGCUAGACUGCC [A14U G21A],0.62
18,GGCAGAGCUCAACUCAGCGUUGCAAAGUGGCUGUGGCUAGACUGCC [A14U G21U],0.74
19,GGCAGAGCUCAACUCAGCGUCGCAAAGUGGCUGUGGCUAGACUGCC [A14U G21C],0.57

row,Variant,self-cleavage
1,GGCAGAGCUCAACUCAGCCUGGCAAAGUGGCUGUGGCUAGACUGCC [A14U G19C],0.15
2,GGCAGAGCUCAACUCAGCUUGGCAAAGUGGCUGUGGCUAGACUGCC [A14U G19U],0.62
3,GGCAGAGCUCAACUCAGCAUGGCAAAGUGGCUGUGGCUAGACUGCC [A14U G19A],0.53
4,GGCAGAGCUCAACAAAGCGUGGCAAUGUGGCUGUGGCUAGACUGCC [C15A A26U],0.08
5,GGCAGAGCUCAACAAAGCGUGGCAAGGUGGCUGUGGCUAGACUGCC [C15A A26G],0.06
6,GGCAGAGCUCAACAAAGCGUGGCAACGUGGCUGUGGCUAGACUGCC [C15A A26C],0.08
7,GGCAGAGCUCAACUCAGCGUGGCAAAGUGGCUGUGGCUAGACUGGC [A14U C45G],0.07
8,GGCAGAGCUCAACUCAGCGUGGCAAAGUGGCUGUGGCUAGACUGAC [A14U C45A],0.07
9,GGCAGAGCUCAACUCAGCGUGGCAAAGUGGCUGUGGCUAGACUGUC [A14U C45U],0.36
10,GGCAGAGCUCAACUCAGCGUGACAAAGUGGCUGUGGCUAGACUGCC [A14U G22A],0.35
11,GGCAGAGCUCAACUCAGCGUGUCAAAGUGGCUGUGGCUAGACUGCC [A14U G22U],0.87
12,GGCAGAGCUCAACUCAGCGUGCCAAAGUGGCUGUGGCUAGACUGCC [A14U G22C],0.27
13,GGCAGAGCUCAACUCAGCGUGGAAAAGUGGCUGUGGCUAGACUGCC [A14U C23A],0.65
14,GGCAGAGCUCAACUCAGCGUGGGAAAGUGGCUGUGGCUAGACUGCC [A14U C23G],0.15
15,GGCAGAGCUCAACUCAGCGUGGUAAAGUGGCUGUGGCUAGACUGCC [A14U C23U],0.31
16,GGCAGAGCUCAACUCAGCGUGGCAAAGUGGCUGUGGUUAGACUGCC [A14U C37U],0.03
17,GGCAGAGCUCAACUCAGCGUGGCAAAGUGGCUGUGGAUAGACUGCC [A14U C37A],0.08
18,GGCAGAGCUCAACUCAGCGUGGCAAAGUGGCUGUGGGUAGACUGCC [A14U C37G],0.05
